Stoichiometry N data for seven substances are collected here from article PMC11054257.

One may read the stoichiometry N as a count of units in the complex or per binding partner.

Common to all, as to test: SDS-PAGE and Western blot of whole cells (oligomer bands that withstand SDS); 1 OD600 of induced cells in SDS sample buffer, 4~12% SDS-PAGE, PVDF, anti-Flag tag antibody; cells treated with proteinase K or not; positions of monomeric, dimeric and trimeric forms called putative
For orientation: Immunoblotting shows a protein as a band on a membrane.

Test [1] concerns the target SadA^644 fused with Flag×3 and the UreB epitopes UreB158–172aa and UreB349–363aa (from pSadBA^644-FU2) (Salmonella typhimurium | Helicobacter pylori SS1) (UniProt P69996).
Test [2] addresses SadA^877 fused with Flag×3 and the UreB epitopes UreB158–172aa and UreB349–363aa (from pSadBA^877-FU2) (Salmonella typhimurium | Helicobacter pylori SS1) (UniProt P69996).
Test [3] addresses SadA^877 fused with N-terminal Flag×3-mScarlet (from pSadBA^877-FM) (Salmonella typhimurium).
For test [4], the target named is SadA^1171 fused with Flag×3 and the UreB epitopes UreB158–172aa and UreB349–363aa (from pSadBA^1171-FU2) (Salmonella typhimurium | Helicobacter pylori SS1) (UniProt P69996).
The target of test [5] is SadA^1292 fused with Flag×3 and the UreB epitopes UreB158–172aa and UreB349–363aa (from pSadBA^1292-FU2) (Salmonella typhimurium | Helicobacter pylori SS1) (UniProt P69996).
In test [6] the target is SadA^1292 fused with N-terminal Flag×3-UreBm-mScarlet (from pSadBA^1292-FUM) (Salmonella typhimurium | Helicobacter pylori SS1) (UniProt P69996).
The target of test [7] is SadA^1292 fused with N-terminal Flag×3-mScarlet (from pSadBA^1292-FM) (Salmonella typhimurium).

As for “SadA^644 fused with Flag×3 and the UreB epitopes UreB158–172aa and UreB349–363aa (from pSadBA^644-FU2) (from UniProt P69996)”, the stoichiometry N in test [1] came to 3. In turn, “SadA^877 fused with Flag×3 and the UreB epitopes UreB158–172aa and UreB349–363aa (from pSadBA^877-FU2) (from UniProt P69996)” returned a stoichiometry N in test [2] of 3. “SadA^877 fused with N-terminal Flag×3-mScarlet (from pSadBA^877-FM)”: the stoichiometry N in test [3] amounted to 3. As for “SadA^1171 fused with Flag×3 and the UreB epitopes UreB158–172aa and UreB349–363aa (from pSadBA^1171-FU2) (from UniProt P69996)”, the stoichiometry N in test [4] is 3. For the substance “SadA^1292 fused with Flag×3 and the UreB epitopes UreB158–172aa and UreB349–363aa (from pSadBA^1292-FU2) (from UniProt P69996)”, the stoichiometry N in test [5] is 3. In turn, “SadA^1292 fused with N-terminal Flag×3-UreBm-mScarlet (from pSadBA^1292-FUM) (from UniProt P69996 111-377)” registered a stoichiometry N in test [6] of 3.

On to “SadA^1292 fused with N-terminal Flag×3-mScarlet (from pSadBA^1292-FM)”, for which, in test [7], the stoichiometry N worked out at 3.
